Source: patent US20110142842A1 (published 2011)

T1: CD20 peptide on HLA-A*02:01 (human)
T1 peptide: SLFLGILSV

B1: TCR of SEQ ID NOs 175 and 148 (CDR3 alpha and CDR3 beta) (TCR)
alpha TRAV12-2 J-33 CDR3: AGIMDSNY
beta TRBV4-2 J2-7 CDR3: ASSHGNGYEQY
B2: TCR of SEQ ID NOs 177 and 150 (CDR3 alpha and CDR3 beta) (TCR)
alpha TRAV30 J-57 CDR3: GTQGGSEKLV
beta TRBV19 J2-7 CDR3: ATAPGLSYEQY
B3: TCR of SEQ ID NOs 179 and 153 (CDR3 alpha and CDR3 beta) (TCR)
alpha TRAV38-2/DV8 J-43 CDR3: AYASFDMR
beta TRBV13 J2-3 CDR3: ASSLGSANTQY
B4: TCR of SEQ ID NOs 180 and 154 (CDR3 alpha and CDR3 beta) (TCR)
alpha TRAV5 J-23 CDR3: AEWGQGGKLI
beta TRBV12-4 J2-7 CDR3: ASSPGLTYEQY
B5: TCR of SEQ ID NOs 181 and 155 (CDR3 alpha and CDR3 beta) (TCR)
alpha TRAV24 J-28 CDR3: AFMPGAGSYQLT
beta TRBV4-2 J2-7 CDR3: ASSQGLTYEQY

Target: T1, CD20 peptide on HLA-A*02:01
Assay: multimer staining

Row | binding result | Binder
1 | recognises | B1
2 | recognises | B2
3 | recognises | B3
4 | recognises | B4
5 | recognises | B5
